For nine molecules, Kd and binding signal results are on record in article PMC9177983, “Mechanism of transcription modulation by the transcription-repair coupling factor”.

One may read the Kd as the free concentration of one partner at which half of the binding sites on the other are occupied at equilibrium, for simple one-to-one binding.

The target in series [1] is T1, Mfd (Escherichia coli, UniProt P30958 1-1148). The series can be described thus: SPR; 0.5 mM ATPgS; SPR: 30 mM Tris/HCl pH 7.6, 40 mM KCl, 5 mM MgCl2, 0.005% P20, 0.25 mM EDTA, 0.5 mM DTT, 0.5 mM ATPgS, 20 C; smFRET: 20 mM Tris/HCl pH 8.0, 40 mM KCl, 5 mM MgCl2, 1 mM 2-mercaptoethanol. To be noted: protein: recombinant, tags: none stated.
The target of another series is Mfd(R953A) (Escherichia coli, UniProt P30958 1-1148, R953A). The description is as above. The note with it: protein: recombinant; tags: none stated; label: 5' biotin on AS18; 5' overhang 6 nt (template).
A further series concerns the target Mfd;RNAP core (Escherichia coli;Escherichia coli, UniProt P30958;P0A7Z4;P0A8V2;P0A8T7;P0A800 1-1148;1-329;1-1342;1-1407;2-91, |). The series can be described thus: SPR; 0.5 mM ATPgS; Mfd titrated onto immobilized RNAP EC; SPR: 30 mM Tris/HCl pH 7.6, 40 mM KCl, 5 mM MgCl2, 0.005% P20, 0.25 mM EDTA, 0.5 mM DTT, 0.5 mM ATPgS, 20 C; smFRET: 20 mM Tris/HCl pH 8.0, 40 mM KCl, 5 mM MgCl2, 1 mM 2-mercaptoethanol. The note with it: protein: recombinant;recombinant; tags: none stated;His; copies: 1;2;1;1;1; label: 3' bioTEG on NT; iCy3 on TS; transcription bubble with RNA:DNA hybrid.

For series [2], the target named is T1, Mfd. The series can be described thus: SPR; ATPgS; SPR: 30 mM Tris/HCl pH 7.6, 40 mM KCl, 5 mM MgCl2, 0.005% P20, 0.25 mM EDTA, 0.5 mM DTT, 0.5 mM ATPgS, 20 C; smFRET: 20 mM Tris/HCl pH 8.0, 40 mM KCl, 5 mM MgCl2, 1 mM 2-mercaptoethanol. The note with it: protein: recombinant; tags: none stated; label: 3' bioTEG on NT; 9-nt non-complementary bubble (dT9 in NT); blunt ends.

B1: bio_dT40_S18 58-mer ssDNA (ssDNA)
DNA: TTTTTTTTTTTTTTTTTTTTTTTTTTTTTTTTTTTTTTTTGCCTCGCTGCCGTCGCCA
B1: in the series with Mfd [1] (label: 5' biotin, single strand), the Kd is approximately 4000 nM.

B2: Cy3_dT40_S18:bio_AS18_Cy5 (dsDNA)
DNA 1: B1 DNA
DNA 2: TGGCGACGGCAGCGAGGC
Regarding B2, in the series with Mfd [1] (label: 5' Cy3, 5' biotin and 3' Cy5 on AS18, 18 bp with 5' overhang 40 nt), the Kd turned out to be 390 ± 10 nM.

B3: dT40_S18:bio_AS18 (dsDNA)
DNA 1: B1 DNA
DNA 2: TGGCGACGGCAGCGAGGC
Take B3: the Kd in the series with Mfd [1] (label: 5' biotin on AS18, 18 bp with 5' overhang 40 nt) came to 300 ± 10 nM.

B4: dT15_S18:bio_AS18 (dsDNA)
DNA 1: TTTTTTTTTTTTTTTGCCTCGCTGCCGTCGCCA
DNA 2: TGGCGACGGCAGCGAGGC
For B4, the Kd with Mfd [1] (label: 5' biotin on AS18, 5' overhang 15 nt (template)) stood at 220 ± 10 nM.

B5: S18:bio_AS18 (dsDNA)
DNA 1: GCCTCGCTGCCGTCGCCA
DNA 2: TGGCGACGGCAGCGAGGC
For the molecule B5, the dissociation constant (Kd) with Mfd [1] (label: 5' biotin on AS18, blunt) was 90 ± 4 nM.

B6: dT6_S18:bio_AS18 (dsDNA)
DNA 1: TTTTTTGCCTCGCTGCCGTCGCCA
DNA 2: TGGCGACGGCAGCGAGGC
As to B6, in the series with Mfd(R953A), the binding signal was 2.3 fold weaker Kd than wild type.

B7: NT_49_bio:TS_49 (dsDNA)
DNA 1: CACTACTGCGACTTACAGACATCGAGAGGGTAATGGCGAATAGCACTGA
DNA 2: TCAGTGCTATTCGCCATTACCCTCTCGATGTCTGTAAGTCGCAGTAGTG
modifications: internal Cy3 in TS_49 after nt 31
As to B7, the Kd in the series with Mfd [1] (label: 3' bioTEG on NT, iCy3 on TS, blunt) was found to be 170 ± 20 nM.

B8: EC scaffold 49-mer (TS_49:NT_49_bio:RNA_15) (mixed)
DNA 1: B7 DNA 2
DNA 2: B7 DNA 1
RNA: AUAUAUAUCGAGAGG
modifications: internal Cy3 in TS_49 after nt 31
Turning to B8, the Kd with Mfd;RNAP core is 127 ± 6 nM.

B9: 49-mer with 9-nt bubble (NT_49_bio_bubble:TS_49) (dsDNA)
DNA 1: CACTACTGCGACTTACAGACTTTTTTTTTGTAATGGCGAATAGCACTGA
DNA 2: B7 DNA 2
Turning to B9, the Kd with Mfd [2] stood at 395 ± 7 nM.
